Results from patent US20200095589, “ENGINEERED DCAS9 WITH REDUCED TOXICITY AND ITS USE IN GENETIC CIRCUITS” (Massachusetts Institute of Technology, published 2020).

Molecular target: dCas9*_HNH-L88 (ZFP fusion) (Streptococcus pyogenes / synthetic)
Test: cell_activity; E. coli; maximum reached at optimal 6 bp spacer; about a third of unmodified dCas9
Settings: dCas9(R1335K), HNH deleted, 88 aa linker, C-terminal Zif268TS3
Procedure: A reporter system was developed to evaluate the impact of these modifications on the ability for dCas9 to repress the targeted promoter (FIGS. 13A-13F). The expression of the sgRNA and dCas9 are controlled using IPTG- and aTc-inducible promoters, respectively. All of these components are integrated into a single p15A plasmid backbone. The fold-repression is measured as the fluorescence from the output promoter in the absence of sgRNA inducer (0 mM IPTG), divided by the fluorescence when the sgRNA is expressed (1 mM IPTG). When the R1335K mutation is made (dCas9*), this completely abolishes repression as expected (FIG. 1C).
The ability for a zinc finger protein (ZFP) to recover nuclease activity was first tested. To this end, a variant of dCas9* described previously was built, where Zif268^TS3 is fused to the C-terminal end of dCas9* via a 58 amino acid linker (Bolukbasi M. F., et al., Nat. Methods, 2015 December; 12(12): 1150-56). The corresponding 12 bp operator recognized by Zif268^Ts3 was then placed upstream of the promoter, separated from the −35 position by a spacer (all promoter variants described are provided in TABLE 3). The orientation of the operator (forward and reverse) was initially tested with the forward yielding higher repression as previously observed (Bolukbasi M. F., et al., Nat. Methods, 2015 December; 12(12): 1150-56). […]

B1: sgRNA9 ; pZFP_S6 promoter (ssRNA ; dsDNA)
RNA: AUAAUACCCGUGUGACCCGUGUUUUAGAGCUAGAAAUAGCAAGUUAAAAUAAGGCUAGUCCGUUAUCAACUUGAAAAAGUGGCACCGAGUCGGUGCUUUUUUU
DNA 1: TCCGAATGACATGCGTCTCCGGTGTTGGAGCGACAGCCTTTACACCAACGGGTCACACGGGTATTATGCTAGC
DNA 2: GCTAGCATAATACCCGTGTGACCCGTTGGTGTAAAGGCTGTCGCTCCAACACCGGAGACGCATGTCATTCGGA
Q: B1 was tested. Which activity did it give?
A: 28 fold repression
